# T1: Activin A (human, UniProt P08476 311-426)
# T1 construct: Homodimer of two βA subunits; bought from R&D Systems (#338-AC); also called inhibin-βA dimer; human Activin A
# T1 sequence: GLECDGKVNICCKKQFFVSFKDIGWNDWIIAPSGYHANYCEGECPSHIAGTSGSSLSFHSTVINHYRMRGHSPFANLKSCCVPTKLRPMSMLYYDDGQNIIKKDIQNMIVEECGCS
# T2: Activin B (human, UniProt P09529 293-407)
# T2 construct: Homodimer of two βB subunits; R&D Systems #659-AB
# T2 chain: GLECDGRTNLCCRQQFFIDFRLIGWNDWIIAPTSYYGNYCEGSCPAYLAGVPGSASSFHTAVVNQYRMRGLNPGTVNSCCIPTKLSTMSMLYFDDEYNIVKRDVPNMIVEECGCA
# B1: H4H10436P2 (antibody, human IgG4, V domains shown)
# VH: QVQLVESGGGVVQPGRSLRLTCVASGFTVSSYGMHWVRQAPGKGLEWVAVMFYDESKKYYADSVKGRFTISRDNSKNTLYLQMNSLRVEDTAVYYCARDEQLDFEYWGQGTLVTVSS
# VL: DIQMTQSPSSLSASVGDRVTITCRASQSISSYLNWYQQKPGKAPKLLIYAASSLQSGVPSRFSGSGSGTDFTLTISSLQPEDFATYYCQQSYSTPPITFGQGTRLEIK
# Columns and labels:
# [1] = molecular target: T1, Activin A; assay: Octet cross-competition; binder on anti-hFc tip; 50 nM hActivin A pre-bound with 1 uM H4H10429P (col 6); black box
# Experimental: (§1) No. 8,309,082) and Control 3 (MAB3381, available from R&D Systems, Inc., Minneapolis, Minn.) were also included in the assays. All assays were performed at 25° C. with a microtiter plate shaking rate of 1000 rpm in Octet HBST buffer (0.01 M HEPES pH7.4, 0.15M NaCl, 3 mM EDTA, 0.05% v/v Surfactant P20, 0.1 mg/mL BSA) according to manufacturer's instructions (ForteBio Corp., Menlo Park, Calif.). […] Any remaining anti-hFc binding sites on the tips were blocked by incubating the tips in a 50 ug/mL solution of irrelevant antibody for 5 minutes.
# [2] = molecular target: T2, Activin B; assay: SPR, captured mAb, 25C
# Experimental: (§2) Antibody-antigen association was monitored for 240 seconds while dissociation in buffer was monitored for 600 seconds. Kinetic association and dissociation rate constants were determined by processing and fitting the data using Scrubber software version 2.0c. Binding equilibrium dissociation constants (KD) and dissociative half-lives (t_{1/2}) were then calculated from the kinetic rate constants as: KD (M)=kd/kₐ and t_{1/2} (min)=[ln 2/(60*kd)]. (NB=no binding observed under the conditions used; NT=not tested).
# [3] = molecular target: T1, Activin A; assay: SPR, captured mAb, 25C
# Experimental: as §2
# [4] = molecular target: T1, Activin A; assay: Octet cross-competition; binder on anti-hFc tip; 50 nM hActivin A pre-bound with 1 uM H4H10423P (col 4); white box
# Experimental: as §1
# [5] = molecular target: T1, Activin A; assay: SPR, captured mAb, 37C; no dissociation observed, kd fixed
# Experimental: as §2
# [6] = molecular target: T1, Activin A; assay: Octet cross-competition; binder on anti-hFc tip; 50 nM hActivin A pre-bound with 1 uM H4H10430P (col 5); black box
# Experimental: as §1
# [7] = molecular target: T1, Activin A; assay: Octet cross-competition; binder on anti-hFc tip; 50 nM hActivin A pre-bound with 1 uM Control 1 (col 10); black box
# Experimental: as §1
# [8] = molecular target: T1, Activin A; assay: Octet cross-competition; binder on anti-hFc tip; 50 nM hActivin A pre-bound with 1 uM H4H10468P2 (col 2); white box
# Experimental: as §1
# [9] = molecular target: T1, Activin A; assay: Octet cross-competition; binder on anti-hFc tip; 50 nM hActivin A mixed with 1 uM Isotype control 13 (-) (col 13); dark grey box
# Experimental: as §1
# [10] = molecular target: T1, Activin A; assay: Octet cross-competition; binder on anti-hFc tip; 50 nM hActivin A pre-bound with 1 uM H4H10442P2 (col 3); white box
# Experimental: as §1
# [11] = molecular target: T1, Activin A; assay: Octet cross-competition; binder on anti-hFc tip; 50 nM hActivin A mixed with 1 uM Isotype control 12 (-) (col 12); dark grey box
# Experimental: as §1
# [12] = molecular target: T2, Activin B; assay: SPR, captured mAb, 37C
# Experimental: as §2
# [13] = molecular target: T1, Activin A; assay: SPR, captured mAb, 37C
# Experimental: as §2
# [14] = molecular target: T1, Activin A; assay: Octet cross-competition; binder on anti-hFc tip; 50 nM hActivin A pre-bound with 1 uM H4H10440P2 (col 9); black box
# Experimental: as §1
# [15] = molecular target: T1, Activin A; assay: Octet cross-competition; binder on anti-hFc tip; 50 nM hActivin A pre-bound with 1 uM H4H10432P2 (col 7); black box
# Experimental: as §1
# [16] = molecular target: T1, Activin A; assay: Octet cross-competition; binder on anti-hFc tip; 50 nM hActivin A pre-bound with 1 uM H4H10446P2 (col 1); white box
# Experimental: as §1
# [17] = molecular target: T1, Activin A; assay: Octet cross-competition; binder on anti-hFc tip; 50 nM hActivin A pre-bound with 1 uM Control 3 (col 11); black box
# Experimental: as §1
binder,measurement,setting,value
B1,binding response,[1],0.36
same,50 nM Ag Bound (RU),[2],32.8 RU
same,Kd,[2],0.0554 nM
same,koff,[2],0.000528 s⁻¹
same,kon,[2],9.52e+06 M⁻¹ s⁻¹
same,t1/2,[2],21.9 min
same,Activin A-20 nM (RU),[3],23.2 RU
same,Kd,[3],0.019 nM
same,koff,[3],0.000168 s⁻¹
same,kon,[3],8.85e+06 M⁻¹ s⁻¹
same,t1/2,[3],68.7 min
same,binding response,[4],1.41
same,koff,[5],≤ 5e-05 s⁻¹
same,binding response,[6],0.28
same,binding response,[7],0.16
same,binding response,[8],1.32
same,binding response,[9],0.14
same,binding response,[10],1.39
same,binding response,[11],0.28
same,50 nM Ag Bound (RU),[12],38.1 RU
same,Kd,[12],0.139 nM
same,koff,[12],0.00136 s⁻¹
same,kon,[12],9.78e+06 M⁻¹ s⁻¹
same,t1/2,[12],8.5 min
same,Activin A-20 nM (RU),[13],29.4 RU
same,Kd,[13],≤ 0.00335 nM
same,kon,[13],1.49e+07 M⁻¹ s⁻¹
same,t1/2,[13],≥ 231 min
same,binding response,[14],0.27
same,binding response,[15],0.23
same,binding response,[16],1.22
same,binding response,[17],-0.04

# — patent US20150037339A1 (Regeneron, published 2015)
